In US20100279930A1 (published 2010):
Residue numbers refer to the chain shown, from its start. Where two headings read alike, the source gives them in different places. No end group written: not given here.

Columns and labels:
human Y4 receptor [1] = molecular target: T1, human Y4 receptor (human, UniProt P50391 1-375); assay: 125I-PP displacement
human Y4 receptor [2] = molecular target: T1, human Y4 receptor; assay: 125I-PP displacement; remark: listed apart in the source

T1 sequence (P50391 whole entry): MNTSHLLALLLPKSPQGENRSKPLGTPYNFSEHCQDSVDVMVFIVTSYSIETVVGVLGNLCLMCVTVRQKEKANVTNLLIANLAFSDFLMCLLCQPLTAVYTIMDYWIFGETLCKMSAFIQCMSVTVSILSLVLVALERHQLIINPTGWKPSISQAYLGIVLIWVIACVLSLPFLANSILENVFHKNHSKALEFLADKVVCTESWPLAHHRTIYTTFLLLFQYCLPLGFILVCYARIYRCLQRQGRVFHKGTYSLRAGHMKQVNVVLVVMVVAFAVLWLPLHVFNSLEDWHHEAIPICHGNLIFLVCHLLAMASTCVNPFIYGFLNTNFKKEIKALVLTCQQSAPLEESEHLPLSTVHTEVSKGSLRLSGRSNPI

Binder: PAPLEPHFPGDNATPEEMAKYAAELRRYINKLTRPRY [4059940]
- IC50 (human Y4 receptor [1]): 0.115 nM

Binder: GAPLEPHFPGDNATPEEMAKYAAELRRYINKLTRPRY (ends and bridges not checked) [compound of SEQ ID NO:1092]
- IC50 (human Y4 receptor [1]): 0.09 nM

Binder: GAPLEPHAPGDNATPEEMAKYAAELRRYINKLTRPRY (ends and bridges not checked) [compound of SEQ ID NO:1090 (code 4059937)]
- IC50 (human Y4 receptor [1]): 0.209 nM

Binder: AAPLEPHYPGDNATPEQLARYYSELRRYINKLTRPRY [4059969]
- IC50 (human Y4 receptor [1]): 0.05 nM

Binder: PAPLEPEYPGDDATPEQMAKYAAELRRYINKLTRPRY [4060205]
- IC50 (human Y4 receptor [1]): 0.112 nM

Binder: PAPLEPKYPGDNATPEELARYAAELRRYINKLTRPRY [4060138]
- IC50 (human Y4 receptor [1]): 0.136 nM

Binder: GAPLEPTYPGDNATPEQLARYYSELRRYINKLTRPRY [4060211]
- IC50 (human Y4 receptor [1]): 0.075 nM

Binder: PAPLEPHYPGDNATPEEMAKYAAELRRYLNKLTRPRY [4059951]
- IC50 (human Y4 receptor [1]): 0.093 nM

Binder: GAPLEPTYPGDNATPEQLAKYAAELRRYINKLTRPRY [4060207]
- IC50 (human Y4 receptor [1]): 0.09 nM

Binder: PAPLEPHYPGDNATPEEMAKYASELRRYINKLTRPRY [4059936]
- IC50 (human Y4 receptor [1]): 0.118 nM

Binder: AAPLEPTYPGDNATPEQLARYYSELRRYINKLTRPRY [4060212]
- IC50 (human Y4 receptor [1]): 0.067 nM

Binder: PAPLEPTYPGDNATPEELARYAAELRRYINKLTRPRY [4060141]
- IC50 (human Y4 receptor [1]): 0.151 nM

Binder: AAPLEPVYPGDDATPQQMARYYSELRRYINKLTRPRY [4060214]
- IC50 (human Y4 receptor [1]): 0.035 nM

Binder: DAPLEPVYPGDNATPEQMAKYYSELRRYINKLTRPRY [4060148]
- IC50 (human Y4 receptor [1]): 0.095 nM

Binder: GAPLEPVYPGDNATPEELARYAAELRRYINKLTRPRY [4060134]
- IC50 (human Y4 receptor [1]): 0.143 nM

Binder: GAPLEPTYPGDNATPEQKAKYAAELRRYINKLTRPRY [4060204]
- IC50 (human Y4 receptor [1]): 0.073 nM

Binder: AAPLEPEAPGDNATPEQMAKYAAALRRYINKLTRPRY [4059976]
- IC50 (human Y4 receptor [1]): 0.122 nM

Binder: PAPLKPTYPGDNATPEQLAKYAAELRRYINKLTRPRY [4059864]
- IC50 (human Y4 receptor [1]): 0.07 nM

Binder: GAPLEPKYPGDDATPEELAKYAAELRRYINKLTRPRY [4060142]
- IC50 (human Y4 receptor [1]): 0.143 nM

Binder: GAPLEPHYPGDNATPEEMAKYAAELRRYINKITRPRY [4059942]
- IC50 (human Y4 receptor [1]): 0.073 nM

Binder: AAPLEPEYPGDNATPEQMAKYAASLRRYINKLTRPRY [4060146]
- IC50 (human Y4 receptor [1]): 0.106 nM

Binder: DAPLEPRYPGDNATPEEMAKYAAELRRYINKLTRPRY [4060145]
- IC50 (human Y4 receptor [1]): 0.173 nM

Binder: PAPLEPHAPGDNATPEEMAKYAAELRRYINKLTRPRY [4059938]
- IC50 (human Y4 receptor [1]): 0.128 nM

Binder: PAPLEPHYPGDNATPEEMAKYAAELRRYINKITRPRY [4059943]
- IC50 (human Y4 receptor [1]): 0.077 nM

Binder: YAPLKPEYPGDNATPEQLAKYAAELRRYINKLTRPRY [4059856]
- IC50 (human Y4 receptor [1]): 0.08 nM

Binder: AAPLEPHYPGDNATPEEMARYYSELRRYINKLTRPRY [4059965]
- IC50 (human Y4 receptor [1]): 0.083 nM

Binder: PAPLKPKAPGDNATPEQLAKYAAELRRYINKLTRPRY [4059862]
- IC50 (human Y4 receptor [1]): 0.071 nM

Binder: GAPLEPEYPGDNATPEQMARYAASLRRYINKLTRPRY [4060202]
- IC50 (human Y4 receptor [1]): 0.061 nM

Binder: PAPLEPEAPGDNATPEQMAKYAAALRRYINKLTRPRY [4059974]
- IC50 (human Y4 receptor [1]): 0.097 nM

Binder: GAPLEPHYPGDNATPEQLARYYSELRRYINKLTRPRY [4059967]
- IC50 (human Y4 receptor [1]): 0.064 nM

Binder: PAPLEPTYPGDDATPEQLAKYAAELRRYINKLTRPRY [4060208]
- IC50 (human Y4 receptor [1]): 0.126 nM

Binder: DAPLEPEYPGDDATPEEMAKYAAELRRYINKLTRPRY [4059971]
- IC50 (human Y4 receptor [1]): 0.228 nM

Binder: HAPLKPTYPGDNATPEQLAKYAAELRRYINKLTRPRY [4059863]
- IC50 (human Y4 receptor [1]): 0.068 nM

Binder: APLEPEYPGDDATPQQMAKYAADLRRYINKLTRPRY [4057257]
- IC50 (human Y4 receptor [2]): 0.083 nM

Binder: PAPLEPEYPGDDATPQQMAHYAAELRRYINKLTRPRY [4057140]
- IC50 (human Y4 receptor [2]): 0.126 nM

Binder: AAPLEPVYPGDNATPEQMARYAAELRRYINKLTRPRY [4057161]
- IC50 (human Y4 receptor [2]): 0.125 nM

Binder: PAPLEPEYPGDDATPQQMAKYAADLRRYINKLTRPRY [4057258]
- IC50 (human Y4 receptor [2]): 0.078 nM

Binder: PAPLEPVYPGDNATPEQLAKYAADLRRYINKLTRPRY [4057145]
- IC50 (human Y4 receptor [2]): 0.07 nM

Binder: PLEPEYPGDDATPQQMARYAAELRRYINKLTRPRY [4057153]
- IC50 (human Y4 receptor [2]): 0.057 nM

Binder: APLEPEYPGDDATPQQMAHYAAELRRYINKLTRPRY [4057139]
- IC50 (human Y4 receptor [2]): 0.078 nM

Binder: PAPLEPDYPGDDATPQQMAKYAAELRRYINKLTRPRY [4057443]
- IC50 (human Y4 receptor [2]): 0.078 nM

Binder: PKPLEPEYPGDDATPQQMARYAAELRRYINKLTRPRY [4057279]
- IC50 (human Y4 receptor [2]): 0.08 nM

Binder: PAPLEPVYPGDNATPEQDAKYAADLRRYINKLTRPRY [4057147]
- IC50 (human Y4 receptor [2]): 0.199 nM

Binder: AAPLEPVYPGDNATPEQMAKYYSELRRYINKLTRPRY [4057271]
- IC50 (human Y4 receptor [2]): 0.062 nM

Binder: PAPLEPEYPGDDATPQQLAKYAAELRRYINKLTRPRY [4057441]
- IC50 (human Y4 receptor [2]): 0.088 nM

Binder: PAPLEPVYPGDNATPEQTAKYAADLRRYINKLTRPRY [4057148]
- IC50 (human Y4 receptor [2]): 0.069 nM

B1: 4057255 (protein)
chain: CAPLEPVYPGDNATPEQMARYAADLRRYINKLTRPRYCAPLEPVYPGDNATPEQMARYAADLRRYINKLTRPRY
- IC50 (human Y4 receptor [2]): 0.22 nM

Binder: PLEPVYPGDNATPEQMARYAADLRRYINKLTRPRY [4057334]
- IC50 (human Y4 receptor [2]): 0.082 nM

Binder: APLEPVYPGDNATPEQMAKYYSELRRYINKLTRPRY [4057270]
- IC50 (human Y4 receptor [2]): 0.085 nM

Binder: PLEPEYPGDDATPQQMAKYAADLRRYINKLTRPRY [4057256]
- IC50 (human Y4 receptor [2]): 0.073 nM

Binder: PAPLEPSYPGDDATPQQMAKYAAELRRYINKLTRPRY [4057442]
- IC50 (human Y4 receptor [2]): 0.101 nM

Binder: APLEPVYPGDNATPEQMARYAAELRRYINKLTRPRY [4057160]
- IC50 (human Y4 receptor [2]): 0.059 nM

Binder: EPLEPEYPGDDATPQQMARYAAELRRYINKLTRPRY [4057274]
- IC50 (human Y4 receptor [2]): 0.103 nM

Binder: DAPLEPVYPGDNATPEQMARYAADLRRYINKLTRPRY [4057337]
- IC50 (human Y4 receptor [2]): 0.109 nM

B2: 4057260 (protein)
chain: B1 chain with V7E, N12D, E16Q, R20K, V44E, N49D, E53Q, R57K
- IC50 (human Y4 receptor [2]): 0.209 nM

Binder: PAPLEPVYPGDNATPEQMAKYAADLRRYINKLTRPRF [4057235]
- IC50 (human Y4 receptor [2]): 0.059 nM

Binder: GAPLEPVYPGDNATPEQMARYAADLRRYINKLTRPRY [4057336]
- IC50 (human Y4 receptor [2]): 0.09 nM

Binder: PAPLEPVYPGDNATPEQMAHYAAELRRYINKLTRPRY [4057152]
- IC50 (human Y4 receptor [2]): 0.141 nM

Binder: HAPLEPVYPGDNATPEQMARYAAELRRYINKLTRPRY [4057228]
- IC50 (human Y4 receptor [2]): 0.068 nM
